Laboratory results taken from PMC5368172.

Assays:
[1] = biological target: SCM on the surface of S. canis strain G361 (Streptococcus canis (endogenous in strain G361)); assay: radioligand binding; iodinated IgG or iodinated plasminogen incubated with whole S. canis bacteria, gamma-counting, percent bound; inhibition with 1.0 μM non-labeled IgG or plasminogen
[2] = biological target: HRP-conjugated human IgG (human); assay: ELISA; competitive: wells coated with 5 μg full length SCM; HRP-conjugated human IgG (1:200) pre-incubated 15 min with 10 μg SCM, FOG or KO173225, then added for 2 h

Substance: human plasminogen (natural protein)
- percent bound [1]: 37.1%
- percent bound with excess non-radiolabeled plasminogen [1]: 23.3%

Substance: recombinant SCM, the M protein of Streptococcus canis (natural protein)
- IgG binding to immobilized SCM left after pre-incubation of IgG with 10 μg SCM, percent [2]: 20%
